The target of this test is humanized anti-human IL-10 antibody SCH 708980 (12G8) (Homo sapiens). Description: competitive ECLA (IGEN): unlabeled IL-10 titrated against hIL-10-biotin for binding to humanized 12G8-1. As for the experimental part: 96 well Polypropylene plates (Costar, Cat. No. 3365, Fisher Sci. Cat. No. 07200697); assay buffer of 0.1% BSA, 0.05% tween 20, PBS pH 7.5; paramagnetic beads (Streptavidin-Dynabeads, Igen, Inc., Cat. No. 110029); recombinant human IL-10 dimer (hIL-10-dimer); recombinant human IL-10-monomer (hIL-10-mono); recombinant mouse IL-10 (mIL-10); recombinant cyno IL-10 (cyno IL-10); and recombinant hIL-10Ra (hIL-10Ra): FLAG-tagged protein. Ori-Tag labeled anti-FLAG M2 monoclonal antibodies were prepared using Ori-Tag-NHS ester (Igen, Inc. Cat. No. 110034) according to manufacturer's protocol (OriTag label: IgG challenge ratio 8:1). Anti-Flag M2 monoclonal antibodies were purchased from Sigma (Cat. No. F3165). Ori-Tag labeled anti hIgG 1A2 monoclonal antibodies were prepared as above using rat anti hIgG monoclonal antibodies. Ori-Tag labeled anti rat IgG antibodies were prepared as above from polyclonal Goat anti rat IgG (H+L) antibodies (Jackson Immunoresearch Laboratories, Inc. PA, Cat. No. 112-005-143). Biotinylated recombinant human IL-10
humanized anti-human IL-10 antibody SCH 708980 (12G8) (Homo sapiens), sequence (VH, as listed by the source, chain 1 of 2): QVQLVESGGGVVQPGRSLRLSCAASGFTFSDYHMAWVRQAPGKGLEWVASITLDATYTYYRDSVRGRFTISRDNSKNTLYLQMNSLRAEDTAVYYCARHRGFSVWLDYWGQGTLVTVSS
humanized anti-human IL-10 antibody SCH 708980 (12G8) (Homo sapiens), sequence (VL, as listed by the source, chain 2 of 2): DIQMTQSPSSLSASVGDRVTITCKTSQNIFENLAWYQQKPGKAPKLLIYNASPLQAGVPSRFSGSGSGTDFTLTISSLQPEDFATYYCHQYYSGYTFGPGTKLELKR
1/3 serial dilutions in 50 microliters of the assay buffer were made in 96-well microtiter plate for all unlabeled IL-10 preparations (mIL-10, cyno IL-10, hIL-10 dimer, hIL-10 mono) starting with 3 μg/ml in the first well. […] Percent inhibition of the signal by unlabeled IL-10 preparations was calculated relative to the control samples. […]

Consider one molecule from patent US20140112919A1, “INTERLEUKIN-10 ANTIBODIES” (MERCK SHARP & DOHME CORP., published 2014).

B1: recombinant human IL-10-monomer (ligand)
chain: SPGQGTQSENSCTHFPGNLPNMLRDLRDAFSRVKTFFQMKDQLDNLLLKESLLEDFKGYLGCQALSEMIQFYLEEVMPQAENQDPDIKAHVNSLGENLKTLRLRLRRCHRFLPCENKSKAVEQVKNAFNKLQEKGIYKAMSEFDIFINYIEAYMTMKIRN
With B1, the IC50 stood at 5.8 nM.
